Publication PMC2441640

Assays:
[1] = molecular target: Pyst1 fused to enhanced yellow fluorescent protein (EYFP-Pyst1) (UniProt Q16828); assay: FRET or BRET
[2] = molecular target: ORF3 protein fused to enhanced cyan fluorescent protein (ECFP-ORF3) (hepatitis E virus); assay: FRET or BRET

Chain of UniProt Q16828 (Q16828 whole entry, the tested form may be a part): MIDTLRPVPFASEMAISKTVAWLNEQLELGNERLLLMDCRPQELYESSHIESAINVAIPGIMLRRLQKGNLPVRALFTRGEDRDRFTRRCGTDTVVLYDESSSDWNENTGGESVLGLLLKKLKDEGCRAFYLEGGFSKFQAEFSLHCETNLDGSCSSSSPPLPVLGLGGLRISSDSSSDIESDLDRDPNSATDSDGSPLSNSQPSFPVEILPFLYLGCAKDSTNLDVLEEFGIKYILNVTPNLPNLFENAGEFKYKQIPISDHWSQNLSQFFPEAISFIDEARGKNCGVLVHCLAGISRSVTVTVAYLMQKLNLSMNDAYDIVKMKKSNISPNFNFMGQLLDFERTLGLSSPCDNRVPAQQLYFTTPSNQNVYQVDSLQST

In the case of “ORF3 protein fused to enhanced cyan fluorescent protein (ECFP-ORF3) (natural protein)”, the percent FRET efficiency (region of colocalization) [1] is reported as 27.8% and the percent FRET efficiency (region of colocalization) [2] is reported as 26.4%.
